Source: patent US20230322908A1 (AC IMMUNE, published 2023)

B1: ACI-7069-642A10-Ab1 (antibody, mouse IgG1, V domains shown)
VH: QVQLQQPGAELVKPGASVKLSCKASGYTFTKYWMHWVKQRPGQGLEWIGEINPSNGRTNYNEKFKSKATLTVDKSSSTAYMQLSSLTSEDSAVYYCARYMDYWGQGTSVTVSS
VL: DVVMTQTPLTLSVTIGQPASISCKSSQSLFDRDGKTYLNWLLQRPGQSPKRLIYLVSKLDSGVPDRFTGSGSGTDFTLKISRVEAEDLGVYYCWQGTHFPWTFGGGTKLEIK
notes: Mouse IgG1, kappa, from hybridoma; also called 642A10B11
B2: 642D12B4 Fab (Fab, V domains shown)
VH: EVQLQQSGAELVKPGASVRLSCTASGFNIKDPYMHWVRQRPKQGLEWIGRIDPADGNTKYDPKFQGKATLTADTSSNVAYLHLSSLTSEDTAVYYCARFYGSSHWYFDVWGAGTTVTVSS
VL: DIKMTQSPSSMYASLGERVTITCKASQDIKRYLSWYQQKPWKSPKILIYYATSLADGVPSRFSGTGSGQDYSLTISSLESDDVATYYCLQQGESPYTFGGGTKLEIK
notes: Fab fragment; also called Fab fragment of ACI-7069-642D12-Ab1
B3: cACI-7069-633B12-Ab1 (human IgG4 S228P chimeric) (antibody, V domains shown)
VH: EVQLQQSGPELVKPGASVKISCKTSGFTFTEYSMHWVKQSHGKSLEWIGGINPNNGGTSYNQKFKGKATLTVDKSSSTAYMELRSLTSEDSAVYYCARESWGQGTTLTVSS
VL: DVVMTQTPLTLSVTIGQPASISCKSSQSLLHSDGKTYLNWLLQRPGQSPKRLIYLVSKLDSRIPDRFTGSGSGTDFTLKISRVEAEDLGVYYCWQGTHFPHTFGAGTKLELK
notes: Murine variable domains on a human IgG4 (S228P) constant domain and human kappa; also called chimeric antibody
B4: hACI-7069-633B12-Ab1_H19L14 (IgG4) (antibody, V domains shown)
VH: QVQLVQSGAEVKKPGASVKVSCKTSGFTFTEYSMHWVRQAPGQRLEWIGGINPGNAGTSYNQKFKGRVTITVDTSASTAYMELSSLRSEDTAVYYCARESWGQGTTVTVSS
VL: DVVMTQSPLSLPVTLGQPASISCKSSQSLLHSDAKTYLNWLQQRPGQSPRRLIYLVSKLDSGVPDRFSGSGSGTDFTLKISRVEAEDLGVYYCFQGTHFPHTFGQGTKLEIK
B5: hACI-7069-633B12-Ab1_H15L14 (IgG4) (antibody, V domains shown)
VH: QVQLVQSGAEVKKPGASVKVSCKASGFTFTEYSMHWVRQAPGQRLEWMGGINPGNAGTSYNQKFKGRVTITVDTSASTAYMELSSLRSEDTAVYYCARESWGQGTTVTVSS
VL: DVVMTQSPLSLPVTLGQPASISCKSSQSLLHSDAKTYLNWLQQRPGQSPRRLIYLVSKLDSGVPDRFSGSGSGTDFTLKISRVEAEDLGVYYCFQGTHFPHTFGQGTKLEIK
B6: hACI-7069-633B12-Ab1_H16L14 (IgG4) (antibody, V domains shown)
VH: EVQLVQSGAEVKKPGASVKVSCKASGFTFTEYSMHWVRQAPGQRLEWMGGINPGNAGTSYNQKFKGRVTITVDTSASTAYMELSSLRSEDTAVYYCARESWGQGTTVTVSS
VL: DVVMTQSPLSLPVTLGQPASISCKSSQSLLHSDAKTYLNWLQQRPGQSPRRLIYLVSKLDSGVPDRFSGSGSGTDFTLKISRVEAEDLGVYYCFQGTHFPHTFGQGTKLEIK
B7: hACI-7069-633B12-Ab1_H20L14 (IgG4) (antibody, V domains shown)
VH: EVQLVQSGAEVKKPGASVKVSCKTSGFTFTEYSMHWVRQAPGQRLEWIGGINPGNAGTSYNQKFKGRVTITVDTSASTAYMELSSLRSEDTAVYYCARESWGQGTTVTVSS
VL: DVVMTQSPLSLPVTLGQPASISCKSSQSLLHSDAKTYLNWLQQRPGQSPRRLIYLVSKLDSGVPDRFSGSGSGTDFTLKISRVEAEDLGVYYCFQGTHFPHTFGQGTKLEIK
B8: hACI-7069-633B12-Ab1_H20L19 (IgG4) (antibody, V domains shown)
VH: EVQLVQSGAEVKKPGASVKVSCKTSGFTFTEYSMHWVRQAPGQRLEWIGGINPGNAGTSYNQKFKGRVTITVDTSASTAYMELSSLRSEDTAVYYCARESWGQGTTVTVSS
VL: DVVMTQSPLSLPVTLGQPASISCKSSQSLLHSDAKTYLNWLQQRPGQSPKRLIYLVSKLDSRVPDRFSGSGSGTDFTLKISRVEAEDLGVYYCFQGTHFPHTFGQGTKLEIK
B9: hACI-7069-633B12-Ab1_H19L18 (IgG4) (antibody, V domains shown)
VH: QVQLVQSGAEVKKPGASVKVSCKTSGFTFTEYSMHWVRQAPGQRLEWIGGINPGNAGTSYNQKFKGRVTITVDTSASTAYMELSSLRSEDTAVYYCARESWGQGTTVTVSS
VL: DVVMTQSPLSLPVTLGQPASISCKSSQSLLHSDAKTYLNWLQQRPGQSPRRLIYLVSKLDSRVPDRFSGSGSGTDFTLKISRVEAEDLGVYYCFQGTHFPHTFGQGTKLEIK
B10: hACI-7069-633B12-Ab1_H17L14 (IgG4) (antibody, V domains shown)
VH: QVQLVQSGAEVKKPGASVKVSCKASGFTFTEYSMHWVKQAPGQRLEWMGGINPGNAGTSYNQKFKGRVTITVDTSASTAYMELSSLRSEDTAVYYCARESWGQGTTVTVSS
VL: DVVMTQSPLSLPVTLGQPASISCKSSQSLLHSDAKTYLNWLQQRPGQSPRRLIYLVSKLDSGVPDRFSGSGSGTDFTLKISRVEAEDLGVYYCFQGTHFPHTFGQGTKLEIK
B11: hACI-7069-633B12-Ab1_H19L17 (IgG4) (antibody, V domains shown)
VH: QVQLVQSGAEVKKPGASVKVSCKTSGFTFTEYSMHWVRQAPGQRLEWIGGINPGNAGTSYNQKFKGRVTITVDTSASTAYMELSSLRSEDTAVYYCARESWGQGTTVTVSS
VL: DVVMTQSPLSLPVTLGQPASISCKSSQSLLHSDAKTYLNWLLQRPGQSPRRLIYLVSKLDSGVPDRFSGSGSGTDFTLKISRVEAEDLGVYYCFQGTHFPHTFGQGTKLEIK

Key:
[1] = target: T1, recombinant human aggregated full-length TDP-43 (human, UniProt Q13148 1-414); assay: SPR, immobilized aggregated TDP-43
T1 construct: also called aggregated TDP-43; aggregated FL TDP-43
Description: (§1) Binding avidity to soluble or aggregated FL TDP-43 was evaluated by determing the dissociation constants (KD) using surface plasmon resonance (SPR; Biacore T200, GE Healthcare Life Sciences). Recombinant human soluble or aggregated FL TDP-43 were immobilized on a CM5 Series S sensor chip (GE Healthcare Life Sciences) by amine coupling. Soluble TDP-43 was immobilized at a concentration of 5 µg/ml in 10 mM sodium acetate (pH 4.5) with a flow rate of 5 µl/min for 420 seconds resulting in an immobilization level of 150 RU. Aggregated TDP-43 was immobilized at a concentration of 50 µg/ml in 10 mM sodium acetate (pH 4.5) with a flow rate of 5 µl/min for 840 seconds resulting in an immobilization level of 110 RU. Biotinylated TP-73 peptide (aa 181-190 of SEQ ID NO:1) was immobilized on a Series S Sensor Chip SA (GE Healthcare Life Sciences) at a concentration of 5 µg/ml in PBS-P⁺ with a flow rate of 5 µl/min for 30 seconds resulting in an immobilization level of 400 RU. […] The antibodies were injected at a flow rate of 50 µl/min for 90 seconds contact time and 700 seconds dissociation phase followed by three regenerations with 10 mM glycine-HCl pH 1.7. For the optimized SPR protocol the antibodies were diluted 3-fold starting from 300 nM and dilute down to 1.2 nM and injected for 300 seconds at 30 µl/min followed by 600 seconds dissociation. The surface was regenerated by one injection with 10 mM glycine-HCl pH 1.7. Results obtained from binding kinetics were double-referenced using a blank flow cell and a buffer cycle and were evaluated with a global 1:1 fitting model with RI. Avidities for 11 antibodies and two Fab fragments are depicted in Table 8. […] In addition, some antibodies show preferential binding to aggregated TDP-43 as compared with soluble TDP-43.

[2] = target: T2, recombinant human full-length TDP-43 (TAR DNA-binding protein 43), soluble (human, UniProt Q13148 1-414); assay: SPR, immobilized soluble TDP-43
T2 construct: Used on Luminex beads, coated on ELISA plates, and immobilized or injected in SPR; also called FL TDP-43; TDP-43 protein
Description: as §1

[3] = target: T3, TP-51 peptide (aa 352-414 of SEQ ID NO:1) (human); assay: SPR 8K, mAb captured, TP-51 injected
T3 construct: Synthetic peptide (Pepscan)
T3 peptide: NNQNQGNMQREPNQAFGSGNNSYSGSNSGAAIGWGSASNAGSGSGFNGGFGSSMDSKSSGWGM
Description: The instrument was primed with running buffer PBS-P+. Fc 1-2 of channels 1-8 (8 K) were activated with a fresh solution of EDC/NHS(Amine Coupling Kit, 1:1 ratio of both reagents, GE Healthcare Life Sciences, BR-1006-33) at 10 µL/min for 420 sec and goat anti-human antibody (GE Healthcare Life Sciences, 29234600) was immobilized at 25 µg/mL in 10 mM sodium acetate pH 5 for 420 sec. Next, all Fc were quenched with 1 M ethanol amine(GE Healthcare Life Sciences, BR-1006-33), for 420 sec. Any non-covalently bound antibodies were removed by two regenerations with 10 mM Glycine-HCl pH 1.7 for 30 sec. Immobilization levels were evaluated following ethanolamine quenching (10000 RU for all channels).
Each cycle started with non-covalent capture of humanized variants which were diluted in running buffer to a final concentration of 2 µg/mL and injected for 60 sec with a flow rate of 10 µL/min. TDP-43 mAbs were captured on channels 1-8, leaving Fc 1 as a blank Fc. Capture levels were evaluated following a 120 sec stabilization period after each mAb injection and ranged from 300-500 RU.
Injections of TP-51 peptide (Pepscan) were performed in single-cycle kinetics with increasing concentrations ranging from 1.2-100 nM prepared from serial 3-fold dilutions. Injections were performed with contact times of 300 sec/injection at a flow rate of 25 µL/min. A dissociation phase of 3600 sec followed the final injection. Sensor surface was regenerated by one injection of 10 mM Glycine-HCl pH 1.7 at a flow rate of 10 µL/min for 120 sec, followed by a stabilization period of 300 sec. Results obtained from single-cycle kinetics were double-referenced using the blank Fc 1 and buffer cycles and evaluated by Biacore 8 K evaluation software with 1:1 kinetic fit model with RI and global Rmax. The following kinetic parameters were obtained: association rate constant (ka), dissociation rate constant (kd), affinity constant (KD) and saturation response (Rmax).

[4] = target: T2, recombinant human full-length TDP-43 …; assay: SPR 8K, immobilized soluble TDP-43
Description: The instrument was primed with running buffer PBS-P+ and flow cells (Fc) 1 and 2 of channels 1-8 were activated with a fresh solution of EDC/NHS (Amine Coupling Kit, 1:1 ratio of both reagents, GE Healthcare Life Sciences, BR-1006-33) at 10 µL/min for 420 sec. Soluble TDP-43 (Selvita) was diluted in sodium acetate pH 4.5 to a final concentration of 5 µg/mL and injected for 900 sec with a flow rate of 5 µL/min on Fc 2. All flow cells were quenched with 1 M ethanol amine (GE Healthcare Life Sciences, BR-1006-33), at 10 µL/min for 420 sec. Immobilization levels after ethanolamine quenching were 680 RU on all eight channels. Prior to analysis, two Startup cycles were run. Increasing mAbs concentrations were injected in single-cycle kinetics ranging from 1.2 to 100 nM, prepared from a 3-fold serial dilution in running buffer, with a contact time of 300 sec and a dissociation time of 900 sec at a flow rate of 30 µL/min. Each cycle was followed by one regeneration using 10 mM Glycine-HCl pH 1.7 with a contact time of 30 sec at 30 µL/min, followed by a stabilization period of 300 sec. Results obtained from single-cycle kinetics were double-referenced using the blank Fc 1 and buffer cycles and evaluated using Biacore 8 K evaluation software using the 1:1 kinetic fit model with RI and global Rmax. The following kinetic parameters were obtained: association rate constant (ka), dissociation rate constant (kd), affinity constant (KD) and saturation response (Rmax).

T1 sequence (Q13148 whole entry): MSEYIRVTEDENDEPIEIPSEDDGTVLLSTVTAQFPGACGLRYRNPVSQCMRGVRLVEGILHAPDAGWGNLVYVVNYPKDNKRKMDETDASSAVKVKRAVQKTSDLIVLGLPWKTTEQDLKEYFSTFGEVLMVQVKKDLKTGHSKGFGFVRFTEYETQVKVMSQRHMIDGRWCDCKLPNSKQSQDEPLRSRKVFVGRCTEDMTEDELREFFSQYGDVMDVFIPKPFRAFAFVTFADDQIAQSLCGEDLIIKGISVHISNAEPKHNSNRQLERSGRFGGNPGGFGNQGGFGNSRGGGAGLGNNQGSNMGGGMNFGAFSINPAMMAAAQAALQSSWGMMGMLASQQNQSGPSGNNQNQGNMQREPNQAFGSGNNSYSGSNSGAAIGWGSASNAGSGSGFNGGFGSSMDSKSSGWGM
T2 sequence (Q13148 whole entry): as above

Binder	Kd [1]	koff [1]	kon [1]	Kd [2]	koff [2]	kon [2]	Kd [3]	koff [3]	kon [3]	Kd [4]	koff [4]	kon [4]
B1	4.64 nM	0.00585 s⁻¹	1.26e+06 M⁻¹ s⁻¹	–	–	–	–	–	–	–	–	–
B2	21.8 nM	0.00176 s⁻¹	94000 M⁻¹ s⁻¹	21.8 nM	0.00267 s⁻¹	128000 M⁻¹ s⁻¹	–	–	–	–	–	–
B3	–	–	–	–	–	–	1.7 nM	0.00021 s⁻¹	130000 M⁻¹ s⁻¹	0.238 nM	9.9e-06 s⁻¹	42000 M⁻¹ s⁻¹
B4	–	–	–	–	–	–	9.4 nM	0.0011 s⁻¹	120000 M⁻¹ s⁻¹	1.01 nM	3e-05 s⁻¹	30000 M⁻¹ s⁻¹
B5	–	–	–	–	–	–	8.3 nM	0.00094 s⁻¹	110000 M⁻¹ s⁻¹	1.2 nM	3.5e-05 s⁻¹	29000 M⁻¹ s⁻¹
B6	–	–	–	–	–	–	9.9 nM	0.0013 s⁻¹	140000 M⁻¹ s⁻¹	0.605 nM	3.3e-05 s⁻¹	55000 M⁻¹ s⁻¹
B7	–	–	–	–	–	–	11.1 nM	0.0014 s⁻¹	130000 M⁻¹ s⁻¹	1.74 nM	4.4e-05 s⁻¹	25000 M⁻¹ s⁻¹
B8	–	–	–	–	–	–	2.9 nM	0.00026 s⁻¹	90000 M⁻¹ s⁻¹	0.684 nM	1.9e-05 s⁻¹	27000 M⁻¹ s⁻¹
B9	–	–	–	–	–	–	1.9 nM	0.00023 s⁻¹	120000 M⁻¹ s⁻¹	0.431 nM	1.4e-05 s⁻¹	33000 M⁻¹ s⁻¹
B10	–	–	–	–	–	–	9 nM	0.0012 s⁻¹	130000 M⁻¹ s⁻¹	1.34 nM	4.2e-05 s⁻¹	31000 M⁻¹ s⁻¹
B11	–	–	–	–	–	–	13.1 nM	0.00093 s⁻¹	70000 M⁻¹ s⁻¹	1.38 nM	3.5e-05 s⁻¹	26000 M⁻¹ s⁻¹
